Here are results for 141 substances from the supplement of paper PMC12042874.

± gives the uncertainty stated by the source.

The data set in a line: amyloid nucleation score (Sup35N fusion, yeast selection) (log enrichment); library NNK1; higher = more nucleation; inactive = no reads after selection. Summed up: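 Nucleation score: DiMSum log enrichment of output over input reads, centred on the mode score of non-aggregating sequences. Only sequences with at least 100 input reads were kept. Reads came from Illumina sequencing of plasmid inserts before and after 7 days of growth at 30°C without adenine and uracil, in psi-negative yeast expressing Sup35N fused to peptides of 20 random codons after 24 hours of induction with 100 μM copper sulfate.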
The substance DMSIKFCEPDFLLRNEQHNL registered an amyloid nucleation score of 0.382 ± 0.3.

DMTAVYLFVTVYSYDLSC had an amyloid nucleation score of 0.569 ± 0.14.

Turning to DNGGSAVQEDQVLAWSTGEQ, the amyloid nucleation score amounted to 0.874 ± 0.23.

Take DNKFYHKVTDRRFLIPIFQI: the amyloid nucleation score was -0.331 ± 0.37.

In the case of DNLSIWGL, the amyloid nucleation score was -0.629 ± 0.89.

Substance DNMYIFEN yielded an amyloid nucleation score of -0.352 ± 0.46.

Regarding DNRLMHIIDMWCRSYFSGHT, the amyloid nucleation score was -0.063 ± 1.4.

With DNSLFLYQRAR, the amyloid nucleation score was -0.449 ± 0.82.

For the substance DPIRCMCVFMVHPCRCDID, the amyloid nucleation score worked out at 0.45 ± 1.1.

With DPNFITMACQIADECAYCCH, the amyloid nucleation score entry is “inactive”.

Substance DQVISNCRLNMGV gave an amyloid nucleation score of -0.369 ± 0.56.

Turning to DRATGISEAVEWHGRWVGKN, the amyloid nucleation score was -0.534 ± 0.83.

DRCSY displayed an amyloid nucleation score of -0.431 ± 0.39.

For the substance DRFGWF, the amyloid nucleation score was -0.148 ± 0.32.

DRFLETICSEGSRPGSGN returned an amyloid nucleation score of 0.917 ± 0.21.

Turning to DRFQNYFCILCFPFYANVCE, the amyloid nucleation score was 2.71 ± 0.12.

DRGDLAFSFSGQRTGGKEPR had an amyloid nucleation score of -0.219 ± 0.51.

The substance DRLVGWVVWLHVVFPRMYVL came in with an amyloid nucleation score of 0.483 ± 0.72.

Consider DRMLHKAI, for which the amyloid nucleation score is -0.624 ± 1.5.

DRNLDEWGEASL registered an amyloid nucleation score of -0.145 ± 1.5.

In turn, DRREGF gave an amyloid nucleation score of -0.892 ± 0.32.

For DRVSCNEEFQRKCIFTVIRR, the amyloid nucleation score amounted to 1.19 ± 0.63.

Consider DSDLRLNLCELTFVPWRRSG, for which the amyloid nucleation score was determined as 2.86 ± 0.19.

Turning to DSLSGSICGFRLYALLFTLT, the amyloid nucleation score is -0.113 ± 0.53.

Take DSQVL: the amyloid nucleation score came to 1.25 ± 0.56.

Take DSRLGLMWMYEPIIRDGKWF: the amyloid nucleation score was found to be 0.802 ± 0.9.

DSRPCGYSRITFVCKGCAPC had an amyloid nucleation score of 0.53 ± 0.79.

DSRVKRY: the amyloid nucleation score result is “inactive”.

DSSCADR gave an amyloid nucleation score of 0.674 ± 0.41.

The substance DSSVLRMQRVDRTRAFTYHW had an amyloid nucleation score of -0.68 ± 0.56.

Consider DSWIQHGGCEFVLIVRRHFI, for which the amyloid nucleation score amounted to 0.714 ± 0.97.

Substance DSWYRLLLARACNISHVRGR gave an amyloid nucleation score of -0.527 ± 0.48.

DSYWFRRLC: the amyloid nucleation score came out at 0.22 ± 0.71.

For DTKIDACIRNSLHGWSRMAR, the amyloid nucleation score came to 0.181 ± 0.38.

As to DTNIHRVEFLISFFGRELSQ, the amyloid nucleation score entry was “inactive”.

DTSGSYMLSYLWGYWQLRSA showed an amyloid nucleation score of 0.073 ± 0.56.

Regarding DTVSMLHQLVCW, the amyloid nucleation score was 7.245 ± 0.053.

Take DTVYDFTMPAWYDYMFWTKW: the amyloid nucleation score entry was “inactive”.

As to DVDGEVRVLDFV, the amyloid nucleation score was -0.24 ± 0.45.

Turning to DVIHDICHAVSIIGAWCRDR, the amyloid nucleation score is -0.061 ± 0.3.

As for DVKCRLWIHAL, the amyloid nucleation score is -0.066 ± 0.54.

Substance DVLSSNVFRNWVMVRSYSRQ yielded an amyloid nucleation score of 0.795 ± 0.52.

In turn, DVPGSRQVLVYFFNQIFDEM gave an amyloid nucleation score of 5.9 ± 0.088.

With DVRGRHRCRFGSQQTKRQS, the amyloid nucleation score worked out at 0.586 ± 0.8.

The substance DWRYPLAYPVFSIDSRMFD registered an amyloid nucleation score of -0.312 ± 0.46.

In turn, DWVELR had an amyloid nucleation score of -0.101 ± 0.86.

Substance DWVYITLNGLLW displayed an amyloid nucleation score of -0.145 ± 0.46.

Turning to DYALYYGVASNRFFGLFRSP, the amyloid nucleation score was 0.642 ± 0.31.

As for DYESKSNFPYTQVNAITW, the amyloid nucleation score was -1.05 ± 1.2.

Take DYKFRDRL: the amyloid nucleation score is 0.364 ± 0.32.

DYNLVSRYVEPSRLVGFLRI returned an amyloid nucleation score of -0.226 ± 0.73.

In turn, DYPCRRGDLRRG yielded an amyloid nucleation score of 0.642 ± 0.95.

Regarding DYRADFNNFVFEERSSYISV, the amyloid nucleation score was -0.236 ± 0.49.

Turning to DYSMFHTVLKVRVCNYFFVW, the amyloid nucleation score was found to be 2.37 ± 0.24.

With DYVPYEKAHRARMYCPTHQG, the amyloid nucleation score worked out at 0.409 ± 0.35.

EAFYFRLRKLFDRNPGGEGT came in with an amyloid nucleation score of 0.621 ± 0.32.

EALCHMWQYSGCP returned an amyloid nucleation score of 0.324 ± 0.66.

Regarding ECFDANIWFWSCPMVHYG, the amyloid nucleation score is 0.904 ± 0.19.

As to ECGLGRSKEQSNGSWMCLHR, the amyloid nucleation score was -0.464 ± 0.54.

Substance ECYQKTGVCRK yielded an amyloid nucleation score of -0.447 ± 0.89.

Regarding EDSGNVIGEYFWKF, the amyloid nucleation score is -1.44 ± 1.9.

In turn, EDTSKVKICFSVIVYSMLNR had an amyloid nucleation score of 8.161 ± 0.045.

For EENLSSPWMPMVPIDTINWF, the amyloid nucleation score was 1.67 ± 0.52.

EFERVRYLYCGRPVPSHILL had an amyloid nucleation score of 0.005 ± 0.89.

EFGNVIRVCNLI: the amyloid nucleation score was -0.289 ± 0.34.

With EFIFFCFVLCYANVMLLWN, the amyloid nucleation score is 0.601 ± 0.42.

The substance EFRKEG displayed an amyloid nucleation score of 1.02 ± 0.52.

As for EFRSSVDWNAFMKLLVCTKH, the amyloid nucleation score came to 0.021 ± 0.93.

For the substance EFSVFYMGFGVM, the amyloid nucleation score result was “inactive”.

Regarding EFYVLISV, the amyloid nucleation score is -1.23 ± 1.9.

EGITHVFIRDGVGSYLKAET showed an amyloid nucleation score of 1.33 ± 0.58.

EGLARCQCLCLTRVIYVESA registered an amyloid nucleation score of -0.403 ± 1.4.

In turn, EGLTNMWGGSYYNGLTFMGQ displayed an amyloid nucleation score of -0.754 ± 0.54.

EGPQIKAAGKPY returned an amyloid nucleation score of -0.373 ± 0.32.

In turn, EGSPKICPRYST displayed an amyloid nucleation score of 0.088 ± 0.6.

For the substance EGTLSMALTL, the amyloid nucleation score turned out to be 0.849 ± 0.49.

For the substance EIAYVLICRHLLECIRA, the amyloid nucleation score entry is “inactive”.

With EIIET, the amyloid nucleation score was 0.534 ± 0.34.

EIIFVRLGANEHWSHNVYVS had an amyloid nucleation score of -0.746 ± 1.2.

The substance EIPLRAGWPPWCGSDICL showed an amyloid nucleation score of 0.639 ± 0.55.

With EIVRLVSVSVWVG, the amyloid nucleation score was determined as 0.014 ± 0.69.

Substance EIWPFMPRDHPMNALIYVSR registered an amyloid nucleation score of 1.34 ± 0.39.

Take EKLRIVHQRRGRVHFNSGAI: the amyloid nucleation score was -0.482 ± 0.41.

Substance EKNCRADATV displayed an amyloid nucleation score of -1.96 ± 1.8.

For the substance ELAAMCSWAYSN, the amyloid nucleation score was determined as 0.097 ± 0.41.

ELERWLDQKGTLQLEDQTLV: the amyloid nucleation score was -0.724 ± 2.4.

Regarding ELGKKYSLYSLVLAST, the amyloid nucleation score stood at 0.107 ± 0.67.

On to ELLMERMRQLVFPPIIYRLN, for which the amyloid nucleation score stood at 0.44 ± 0.62.

Substance ELRCTTWSRSPSLQVALVDL registered an amyloid nucleation score of -0.499 ± 0.59.

The substance ELRLSLYLRKRRQYFRFVLK returned an amyloid nucleation score of -0.516 ± 1.7.

On to ELSLKVFPTARIKRCMFEPM, for which the amyloid nucleation score was 0.838 ± 0.45.

ELSVNMSRDLSVTGLVQGRR registered an amyloid nucleation score of 0.794 ± 0.36.

Substance ELTCWSGDGGVGGILVNVWT came in with an amyloid nucleation score of 0.565 ± 0.47.

Substance EMAFSSINPRGHSIQGSASG yielded an amyloid nucleation score of -0.282 ± 1.2.

Take EMEVLSVPSVLLVIVVR: the amyloid nucleation score was -1.04 ± 0.66.

As for ENDVSQPVRLTVVTRWSWYT, the amyloid nucleation score was found to be 0.229 ± 0.53.

ENFLTNYFYSVVTVI yielded an amyloid nucleation score of -1.51 ± 1.2.

ENIDVENQLVYLFKICFGSM displayed an amyloid nucleation score of 3.09 ± 0.12.

As for ENRQIWCANGNVVGGTALGV, the amyloid nucleation score is 0.734 ± 0.69.

In turn, ENYKVGACVYLPWPFHENTG gave an amyloid nucleation score of -0.096 ± 0.56.

Take EPAFL: the amyloid nucleation score stood at 0.229 ± 0.42.

In turn, EPIYCFCDCNGSRWALYVSV had an amyloid nucleation score of 0.421 ± 0.54.

In the case of EPKVSSEQKVFDSCYT, the amyloid nucleation score is 0.417 ± 0.61.

Regarding EPLISCILCKLEGWIPYHI, the amyloid nucleation score was -0.493 ± 0.56.

The substance EQCTLVVSYGVWGHRSSCVG yielded an amyloid nucleation score of 0.93 ± 0.45.

For the substance EQENMCSVRQACIYH, the amyloid nucleation score worked out at 1.57 ± 0.29.

EQHSPHPTIEKIALTCFTRC came in with an amyloid nucleation score of -0.189 ± 0.4.

Consider ERNSITSILKRNRLSRGFAL, for which the amyloid nucleation score was found to be 2.44 ± 0.48.

Take ERSYSNWAMG: the amyloid nucleation score was determined as 0.958 ± 0.74.

In the case of ERVSETRQSLTWNHNERIWL, the amyloid nucleation score was determined as 1.55 ± 0.12.

With ERYKY, the amyloid nucleation score stood at 0.601 ± 0.61.

ESGYVLESSVQVENKFIFTT came in with an amyloid nucleation score of -2.27 ± 2.4.

On to ESIFFMTDTRSISLCST, for which the amyloid nucleation score was -0.04 ± 0.27.

Take ESKEPFLCIQDITVSSFLPF: the amyloid nucleation score was -1.69 ± 2.4.

Substance ESPHYFTLTCV showed an amyloid nucleation score of -0.036 ± 0.74.

Take ESSAIRNGEC: the amyloid nucleation score came to 0.252 ± 0.52.

ESSMLAMVGIQSTWCNVSYG: the amyloid nucleation score is 1.67 ± 0.2.

Substance ESSYLMNKCSSAIQDWDWGR gave an amyloid nucleation score of 0.321 ± 0.4.

In turn, ETITKVVQQLSRLDKLSTYW registered an amyloid nucleation score of 1.53 ± 0.26.

The substance ETMGGLE returned an amyloid nucleation score of 0.107 ± 0.9.

Take ETPNAFHVHMSYVYRLRWSR: the amyloid nucleation score stood at 2.75 ± 0.17.

The substance ETYGCFRYWISSLPVVEVSF registered an amyloid nucleation score of -0.368 ± 0.35.

As to EVEIFILNLLFIFPNQKARW, the amyloid nucleation score came out at 4.17 ± 0.12.

EVGRSCWLGSL gave an amyloid nucleation score of -0.344 ± 0.68.

The substance EVHRFRVKKEGGDQ had an amyloid nucleation score of 0.869 ± 0.57.

Substance EVMVSAGVTIACSPVVIRFR came in with an amyloid nucleation score of 1.47 ± 0.54.

In turn, EVVKSITRKPNLVWRYLTLD had an amyloid nucleation score of 0.588 ± 0.44.

EWGNRRVFYVVMDGSRCPAS displayed an amyloid nucleation score of 0.1 ± 0.16.

Take EWSFSYCGGVAFLSIEIEFL: the amyloid nucleation score result was “inactive”.

Regarding EYDLRSGEG, the amyloid nucleation score is -0.332 ± 0.46.

EYLFLRRM gave an amyloid nucleation score of 2.92 ± 0.089.

For EYVHLNQVNDAGGVDSGTLS, the amyloid nucleation score came to 0.823 ± 0.28.

On to EYVRRKFQPSCTVMRYCFAR, for which the amyloid nucleation score was 0.006 ± 0.77.

Substance FAGFTGGVLYGVWRLLGSCR had an amyloid nucleation score of -0.022 ± 0.59.

The substance FAHTLGA had an amyloid nucleation score of 0.333 ± 0.79.

In the case of FAKLYLKSISVLLMHTDWVF, the amyloid nucleation score was determined as 0.684 ± 0.62.

Take FAPMILRPVLSQMAWWKDIA: the amyloid nucleation score is -0.108 ± 0.52.

Substance FAQWDNLSARSLKGDQRESA gave an amyloid nucleation score of 0.302 ± 0.52.

On to FATRTLVYVYFRWCHDDLSH, for which the amyloid nucleation score is 0.584 ± 0.56.

Turning to FAWVDPGFLWDNLTPGTDRC, the amyloid nucleation score was determined as 0.253 ± 0.43.

As to FCCGSGNSMDMCWFLSIG, the amyloid nucleation score stood at 6.93 ± 0.079.
